B1: TPR t1 (parent)
chain: GACCAAUCUGCCCUCAGAGCUCGAGAACAUCUUCGGAUGCAGAGGAGGCAGGCUUCGGUGGCGCGAUAGCGCCAACGUCCUCAACCUCCAAUGCAUCCCACCACAUGAUGAUGCCUGAAGAGCCUUGGUUUUUUG

Variants of: B1
Test: polymerase ribozyme fitness, log enrichment relative to wild type (log ratio); higher = more active; in vitro selection for triplet polymerase activity
Outline: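 Mutant libraries for each subunit of a heterodimeric triplet polymerase ribozyme were made by PCR and then transcribed. Each library underwent one round of in vitro selection in triplicate: annealing with a biotinylated primer, the partner subunit and triplets, frozen incubation at −7 °C, gel excision of extended constructs, streptavidin-bead capture and RT-PCR. Input and output libraries were Illumina-sequenced, and only genotypes with ≥10 input reads and ≥1 read per output were kept. Fitness is the logarithm, base 2, of genotype enrichment over wild-type enrichment, computed from inverse-variance-weighted replicate averages.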

Row | Variant | polymerase ribozyme fitness (log ratio)
1 | C4U G47U U112C | -0.0324
2 | A29C G60U U87C | -2.47
3 | C8A U129C | -1.05
4 | C62A C79A C115A G127A | -3.94
5 | U78C G120C | 0.45
6 | C12U A18G G19C A37U A118U A121G | -1.65
7 | G45U C99A G117C | -6.81
8 | G35C G61A A121U U126A | -3.79
9 | U54G U59C U130A | -1.81
10 | G42C A103G C114G G122U | -6.92
11 | C12U C40U C86U C94G U130A | -3.47
12 | G36U A84C G110A | -2.43
13 | G45U C94U A111U G127U | -3.61
14 | A18C A43G C72G C114U U129C | -4.8
15 | G71A C72A | -1.46
16 | C34A G45C C53A G60U | -1.66
17 | C49U G113U C114U | -2.07
18 | C28A G44A G48A C73U U106A | -5.87
19 | U14C C72U U78G C115U U116C | -3.05
20 | A26G A41G G60C G93A | -2.97
21 | C94U U112A | 1.59
22 | C56A A121C | 0.751
23 | C28G G47C | -3.69
24 | C31A C88U A121G | -2.7

Row | Variant | polymerase ribozyme fitness (log ratio)
25 | U9A C40G | 0.644
26 | G47U C124G | 0.196
27 | G19A G71C | -3.41
28 | C86A U92A C115A C123G | -2.27
29 | C40U G61U G71A C99U G120A | -6.74
30 | U7G C115U | -1.47
31 | C12A G52U G57U C64U C72U A105U | -3.63
32 | C8A C72G | 0.254
33 | G51A C99U C124A | -5.8
34 | C62A C123U | 0.181
35 | C4G G36U A90C C124U | -3.18
36 | C56A G71U C82U | -1.78
37 | C49A C72U G113A G128C | -4.46
38 | A2U G42C C72A | -3.5
39 | C72U G110A G113A | -4.61
40 | C79U C94U | -0.702
41 | G61U U96G | -0.881
42 | U38G U133A | -0.846
43 | U55A C86G U130A | -0.641
44 | C13U A16C G48C U59A A68G A100C A121C | -7.2
45 | C4U U14C G60A A75U | -3.07
46 | A46C C72U | -1.13
47 | G61C C80G | -4.64
48 | G120C C123A | 0.937

Row | Variant | polymerase ribozyme fitness (log ratio)
49 | G47U G69U U131A | -1.3
50 | G127C G128A | -1.79
51 | G19C G61A G113U U129A | -4.11
52 | A18U U78A A95U C104U | -4.27
53 | C11U C40G C53U C62U C73G C79A C86U | -4.3
54 | C13U A16U G45U G60U A95U C97U | -2.68
55 | G113U U132A | -2.22
56 | U7G C79U C124A | 2.08
57 | C13U C34U C88U | -4.18
58 | C13U C40U G69U C88G | -2.27
59 | C13A G60U C72U A91U G120A | -2.35
60 | G36C U38C G71U | -4.73
61 | U9A C40G G113A | -0.901
62 | C49A G63U C97G U132A | -6.24
63 | C8G U54G C115A | 2.13
64 | G58C G113U | -2.87
65 | A5U C20A G69U C98G C123G | -2.75
66 | C11G U21A C53G C114A | 0.189
67 | C31A G44U G47C U78G G120C G127U | -6.6
68 | A18C A43U G63A U81A | -6.15
69 | G48U C79U | -2.53
70 | C12U C56U G60U | -4.18
71 | U55G C123G | 2.06
72 | G39U G69U | 0.0399

Row | Variant | polymerase ribozyme fitness (log ratio)
73 | C79A G93A | -1.37
74 | C20U G61C G93C | -3.53
75 | C49G | -0.312
76 | A50C G63U U81A U129A | -2.04
77 | U21C U54C G63C C80A A105C C115U A118C | -7.47
78 | C40U A90G C123U | 1.26
79 | A27G A74C C115G | -6.8
80 | C72U A74U | -1.23
81 | C12U C28A C40U | -4.66
82 | G47U U59C C97U G110C A121G U126C | -6.2
83 | C40A C72U G77C G110U | -3.75
84 | C40G G63A | -1.91
85 | G93U G110A G120U | -4.68
86 | U87C C104U | 0.232
87 | C22U A43G G61A C115A | -5.11
88 | G51C | -3.7
89 | A5C C40G | -1.78
90 | A2U A74U C82U | -3.62
91 | C3U U30G C123A C124U | -5.14
92 | C11U G45C U81G | -4.91
93 | U55C C56U U59C | -0.103
94 | C20U G42U C56A A74U C115G | -4.76
95 | A43U U78G C85U G93A | -3.01
96 | C53G G69A U78C C97U | -2.9

Row | Variant | polymerase ribozyme fitness (log ratio)
97 | G61C A121C | -0.241
98 | A6C A29U A91C | -4.88
99 | C8A A50C U92C | -1.6
100 | G39A G117A | -1.8
101 | U7A C13U C22G A103C U130C | -4.17
102 | G63U U78C C123U | -1.9
103 | U9G G23U A43U G71A G110C C124G U126G | -8.22
104 | U7A C62G G117U | -5.82
105 | G39U A46G U78A C89U A95U C97U | -2.4
106 | A29C C62A | -3
107 | C11G A41C U87A U92G | -1.84
108 | C4A A84C C115U G135U | -3.92
109 | C64G C115A G128A U130C | -5.49
110 | U32C C72A | 0.0616
111 | C8G G77C | 0.232
112 | C114A G117U C124U | -6.08
113 | G44A G60A A68G C85U U106A U129C | -5.96
114 | A5U A6G G45C G69U A95U | -2.34
115 | A46G G58U G69A G110A | -4.68
116 | C49A G69A U106A | -2.86
117 | U9C G69A | -2.17
118 | G60A G61C G110C | -5.74
119 | G47U C101A | -2.91
120 | C114A G117C | -4.77

Row | Variant | polymerase ribozyme fitness (log ratio)
121 | G42U G69C C123A | -3.23
122 | A5U G71A | -1.5
123 | G107U | -4.78
124 | A29G A43U G61U U116C G117U | -0.773
125 | G47C C102U | -2.99
126 | U7C C11U | 0.539
127 | G45U C123G | -0.391
128 | U78C C89U G93U | -1.09
129 | C11A U54A C123A | 0.93
130 | G48C G57U G69U U92C | -1.31
131 | C11A C72U U78C C82G C101A A121C | -0.882
132 | U78A G110A | -1.32
133 | C20U A43C G47A C82G A95U A105C U112A | -4.61
134 | G42U A43C | -1.95
135 | U32A U112A | -2.37
136 | C13G C72U C94U C101G | -4.88
137 | C85A G117C | -5.07
138 | C8G C11G C20U G63C | -1.38
139 | U21G A105U G120A | -2.92
140 | U33A C114U | -4.64
141 | G23C C62A C99U U112C | -6.42
142 | U7G A118G | 0.686
143 | U38G U125G | -1.35
144 | G120U U130G | -0.763

Row | Variant | polymerase ribozyme fitness (log ratio)
145 | G52A G58U C73G | -0.432
146 | A41U A74C | -4.24
147 | U9G A37U A100C | -0.694
148 | C12G C28U C124U | -0.261
149 | G63U C94A A108G | -5.53
150 | U106C C114A G120C | -2.21
151 | C4G G10U C20G G69A C114U | -6.96
152 | U21A C72G G77C C85A | -3.48
153 | A50U U81A | -0.662
154 | C13U C85A A91C C104A G120C | -3.62
155 | C20A C79U | -2.47
156 | G42A C70A | -4.1
157 | A29G A37U A95C | -3.29
158 | C11A A37U C62A C102A | -5.51
159 | C11G C31A C73U | -4.73
160 | G42A U106A G120U U132A | -2.41
161 | C49G C72A C79U G93U | -1.3
162 | C12U C13G A37U U54G C73U C123U | 1.09
163 | U54A G71U C79U G93A C94U | -2.4
164 | U87G C104U G117A | -3.2
165 | C20A U112A | 0.09
166 | U7A C73G C82G | -1.56
167 | G57A C124A | 0.954

Source: the RNAGym collection of RNA variant scans (doi:10.1073/pnas.2313332121)
